# T1: papain (Carica papaya, UniProt P00784)
# T1 sequence (P00784 134-345): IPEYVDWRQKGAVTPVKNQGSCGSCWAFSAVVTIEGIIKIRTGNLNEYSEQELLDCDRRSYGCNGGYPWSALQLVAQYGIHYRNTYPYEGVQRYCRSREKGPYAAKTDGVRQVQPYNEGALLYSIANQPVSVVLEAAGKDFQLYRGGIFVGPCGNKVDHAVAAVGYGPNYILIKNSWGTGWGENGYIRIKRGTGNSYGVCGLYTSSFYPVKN
# B1: Der p 1: major house dust mite allergen, family C1 cysteine protease, purified from D. pteronyssinus extract (protein, UniProt P08176 99-320, looked up)
# Peptidase 1: TNACSINGNAPAEIDLRQMRTVTPIRMQGGCGSCWAFSGVAATESAYLAYRNQSLDLAEQELVDCASQHGCHGDTIPRGIEYIQHNGVVQESYYRYVAREQSCRRPNAQRFGISNYCQIYPPNVNKIREALAQTHSAIAVIIGIKDLDAFRHYDGRTIIQRDNGYQPNYHAVNIVGYSNAQGVDYWIVRNSWDTNWGDNGYGYFAANIDLMMIEEYPYVVIL
# Legend:
# [1] = molecular target: T1, papain; conditions: 12.5 nM E-64, papain 5 nM
# Description: Stock solutions of 1M DTT and 100 mM EDTA were made in the beginning of the experimental period, frozen at −20° C., and used through the entire project period. Each day a new buffer was made containing the reducing agent DTT and EDTA from the stock solutions. […] DTT is continuously oxidized by the oxygen in the air and therefore a new buffer must be made each day. […] The microtiter plate was opaque to avoid cross contamination of emitted fluorescence between wells. The substrate was diluted to the final concentration in the newly made buffer containing DTT and EDTA and transferred to the microtiter plate. The enzyme was diluted in the same buffer and incubated 10 min in the case of papain and 20 min in the case of Der p 1, for their activation. Mixing, transferring and incubation were carried out at room temperature. After incubation the enzyme solution was transferred to the microtiter plate and the measurements were initiated. The measurements were carried out for 10 min with a total of 36 measurements for each well and automatic mixture between each measurement.
# EDTA was added at 1 mM, and DTT at 5 mM final concentrations.
# [2] = Quenching of AMC fluorescence by aluminium hydroxide; format: physicochemical; conditions: 1 μM AMC, during the time of the assay
# From the text: This AMC concentration is equivalent to the enzymatic assay AMC concentration generated by papain and Der p 1.
# [3] = Adsorption of Der p 1 to aluminium hydroxide: protein concentration by rocket immune electrophoresis (RIE); format: physicochemical
# From the text: This method was used to quantify a given protein by measuring the propagation of protein-antibody complex after electrophoresis in an agarose gel containing antibodies directed against the protein under investigation.
# This method is based on the mobility of protein-antibody complex in an agarose gel during electrophoresis. The antibodies are incorporated into the agarose gel during polymerization and the sample protein is then applied to the wells. The proteins move according to their electrophoretic mobility encountering the antibodies in the gel and forming complexes. These complexes grow in size as the antigen encounters more and more antibodies thereby limiting the migration through the pores of the gel until no further migration occurs. The complexes are visualized by staining the gel. The area delimited by the complexes is proportional to the amount of protein applied to the well. The quantification is performed relative to an internal standard preparation applied in a dilution series on the same gel.
# A glass plate was placed on a leveled surface and cleaned with ethanol. 11 mL agarose was pipetted into a test tube in a 56° C. water bath, 15 μL antibody was added, and the solution was mixed gently by inversion. The agarose was poured onto the glass plate carefully avoiding formation of air bubbles. After gelation a series of wells were punched 1.5 cm from the lower edge of the plate. The plate was placed on the cooled surface of the electrophoresis apparatus. Connecting bridges of 5 layers of filter paper were established and the voltage across the gel adjusted to 2V/cm. 10 μL of sample was applied to the wells. […]
# (§1) After adsorption 500 μL was taken out for further analysis and the rest of the mixture was centrifuged for 10 min at 4000 rpm. […] Con1 was analyzed in the beginning of the experiment and Con2 was analyzed at the end of the 2 hours experiment.
# Another method applied to quantify protein content was RIE. The samples Con1, Con2, Sup, and Elu were evaluated together with three Der p 1 standards (125 ng, 250 ng, and 500 ng). […]
# [4] = Der p 1 enzyme activity fluorescence assay (activity measurements and Michaelis-Menten kinetic), Der p 1/aluminium hydroxide adsorption experiment; format: biochemical
# Description: After measuring the enzymatic activity the maximal slope of the progress curve was estimated using the software SoftMax® PRO Life Sciences Edition, Molecular Devices, 2001. After estimating the initial velocity of the experiments they were transferred to Prism and analyzed.
# After adsorption 500 μL was taken out for further analysis and the rest of the mixture was centrifuged for 10 min at 4000 rpm. An elution step was performed for 1 h at 4° C. where the pellet of Mix2 was resuspended in phosphate buffer. […] Con1 was analyzed in the beginning of the experiment and Con2 was analyzed at the end of the 2 hours experiment.
# Different types of enzymatic assays were performed: (i) activity measurements using a fixed substrate concentration to evaluate enzyme activity, and (ii) Michaelis-Menten kinetic to estimate the kinetic parameters Vmax and KM.
# All activity assays were conducted with Tris buffer, pH 7.0, 5 mM DTT, 1 mM EDTA and Boc-QAR-AMC as substrate.
# [5] = system: IgE from sera of HDM allergic patients; assay: IgE inhibition assay (ADVIA centaur); format: binding, human
# Description: This assay evaluates the capacity that an allergen has to bind IgE from sera of patients allergic to that allergen source.
# IgE inhibition experiments were performed on an ADVIA centaur instrument. Serial dilutions (performed with the TECAN (P-05-07F294)) of the inhibitor (Antigen in solution or antigen gel adjuvant vaccine) were mixed with a fixed amount of biotinylated antigen and further incubated with a solid phase absorbed IgE. The amount of biotinylated allergen bound to the solid phase was estimated as the light emitted after incubation with streptavidin labelled with acridinium ester. The raw data was processed in Excel and transferred to GraphPad Prism v. 4.0 for the final analysis (curve fitting, plotting and statistical comparisons). The data was fitted to a four parameter logistic function:
# After the adsorption the solution was centrifuged for 5 minutes at 13,000 rpm. […] A Der p extract sample was prepared for incubation with pooled sera IgE.
# [6] = Adsorption of Der p 1 to aluminium hydroxide: protein concentration by A280; format: physicochemical
# From the text: The aromatic amino acids tryptophan, tyrosine and phenylalanine absorb ultraviolet light. However only tryptophan and tyrosine absorb at 280 nm and tryptophan absorbs 5 times more light than tyrosine. This is due to the […] transition in the indole ring of tryptophan where phenylalanine and tyrosine contains a phenyl group. The absorbance of a protein is linearly correlated with the amount of tryptophan and tyrosine in the protein, the length of the light path and the concentration of protein. This relationship is named Lambert-Beer's law and is given by: A=ε·l·c where A is the absorbance, ε is the molar absorption coefficient for the protein (determined by the amount of tryptophan and tyrosine in the protein) l is the length of the light path and c is the protein concentration. Thus from an absorbance measurement the concentration of protein can be estimated if the molar absorptivity coefficient is known. • Apparatuses • Lambda 800 UV/VIS Spectrometer, PerkinElmer™ • 100-QS, quartz cuvette, path length 1 cm, Hellma® • Materials and Reagents • 50 mM Bis-Tris pH 6.5, Sigma • 50 mM Tris pH 7.0, Sigma • 50 mM phosphate buffer pH 7.0, Merck • 2% Helmanex solution, Hellma Experimental Procedure
# The spectrophotometer was turned on 30 min prior to use for a warm up period. The wavelength of the spectrophotometer was set to 280 nm and the instrument was zeroed to a blank sample containing the matrix of the true sample. The quartz cuvette was washed first with a 2% Helmanex solution and then 4 times with MQ water and afterwards dried with high pressure air. […] After cleaning the cuvette 20 μL of sample was transferred to the cuvette and the absorbance was measured.
# as §1
# The absorbance measurements were converted to protein concentration by the Lambert-Beer's law using a molar absorption coefficient for Der p 1 of […] as shown in table 8a. […]
# [7] = Adsorbed: Der p 1 adsorbed to aluminium hydroxide (mix 2)
# [8] = Control: Der p 1 in the absence of aluminium hydroxide
# [9] = Eluted: Der p 1 eluted from aluminium hydroxide with phosphate buffer
molecule,measurement,setting,value
"CC(C)C[C@H](NC(=O)[C@H]1O[C@@H]1C(=O)O)C(=O)NCCCCN=C(N)N (relative stereo) [E-64, L-trans-epoxysuccinyl-L-leucylamido (4-guanidino) butane]",Inhibition of papain enzyme activity,[1],does not completely inhibit
Cc1cc(=O)oc2cc(N)ccc12 [AMC],Quenching of fluorescence by aluminium hydroxide,[2],no quenching occurred
B1,Adsorbed protein eluted from aluminium hydroxide using phosphate buffer,[3],98%
same,Adsorption degree,[3],approximately 56%
same,Protein content in Con1 found in Sup,[3],44%
same,Vmax in Mix2 relative to Vmax in Mix1,[4],62%
same,Vmax in Sup relative to Vmax in Mix1,[4],30%
same,Km,[4]; [7],56 µM
same,Vmax,[4]; [7],0.15 ng/mL · s
same,"kcat (Vmax/protein concentration, A280)",[4]; [7],0.022 s⁻¹
same,"kcat (Vmax/protein concentration, RIE)",[4]; [7],0.019 s⁻¹
same,Vmax,[4]; [8],0.25 ng/mL · s
same,"kcat (Vmax/protein concentration, A280)",[4]; [8],0.024 s⁻¹
same,"kcat (Vmax/protein concentration, RIE)",[4]; [8],0.018 s⁻¹
same,Km,"[4]; Control: Der p 1 in the absence of aluminium hydroxide, Boc-QAR-AMC, pH 7.0",47 µM
same,Km,[4]; [9],51 µM
same,Vmax,[4]; [9],0.11 ng/mL · s
same,"kcat (Vmax/protein concentration, A280)",[4]; [9],0.025 s⁻¹
same,"kcat (Vmax/protein concentration, RIE)",[4]; [9],0.014 s⁻¹
same,Difference between Vmax of Con1 and Mix1,[4]; Newman Keuls multiple comparison test p>0.05,no significant difference
same,Activity in Mix2 found in Elu,[4]; Vmax,68%
same,Activity of Der p 1 adsorbed to aluminium hydroxide,[4]; activity measurements,66%
same,Adsorbed activity desorbed after elution from Mix2 with phosphate buffer,[4]; activity measurements,67%
same,Activity of non adsorbed Der p 1 in Sup relative to activity in Mix1,"[4]; activity measurements, 100 μM Boc-QAR-AMC",33%
same,Part of the Der p 1 molecules adsorbed to the aluminium hydroxide,[4]; conclusion,60-70%
same,Vmax of Con2 lower than Vmax in Con1,"[4]; end vs beginning of 2 hours experiment, absence of aluminium hydroxide, t-test p-value=0.0024",14%
same,Difference between KM means of the samples,[4]; one-way ANOVA p-value=0.62,no significant difference
same,"Difference in activity between Con1, Con2 and Mix1","[4]; one-way ANOVA p-value=0.76, 2 hours experiment",no significant difference
same,"Inhibition of IgE binding, bottom levels of Con1 and Elu",[5]; Der p 1 without aluminium hydroxide (Con1) vs eluted from aluminium hydroxide (Elu),complete inhibition is possible
same,Hill slopes of Con1 and Elu,[5]; one sample t-test p=0.83,not significantly different
same,Adsorbed protein eluted from aluminium hydroxide using phosphate buffer,[6],56%
same,Protein content in Con1 found in Sup,[6],32%
same,Adsorption degree,"[6]; 100 μg/mL Der p 1, 1.14 mg/mL aluminium hydroxide, 1 h at 4° C.",approximately 70%
